Experiments:
AtPIF3-bHLH H348A = target: T1, AtPIF3-bHLH H348A (Arabidopsis thaliana, UniProt O80536 340-397, H348A); assay: ITC; binding curve unsaturated; ITC: 30 mM HEPES, 125 mM NaCl, pH 7.5, 25 C, 400 uM protein into 40 uM DNA; fEMSA: 30 mM HEPES, 500 mM NaCl, pH 7.4, on ice 30 min, 3 uM probe, 10% native gel in 0.5x TBE at 4 C; details: protein: recombinant; tags: C-terminal His6; chain copies: 2; blunt
T1 sequence: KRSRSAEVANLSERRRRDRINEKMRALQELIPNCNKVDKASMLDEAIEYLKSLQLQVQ

AtPIF3-bHLH R356A = target: T2, AtPIF3-bHLH R356A (Arabidopsis thaliana, UniProt O80536 340-397, R356A); assay: ITC; error exceeds value; ITC: 30 mM HEPES, 125 mM NaCl, pH 7.5, 25 C, 400 uM protein into 40 uM DNA; fEMSA: 30 mM HEPES, 500 mM NaCl, pH 7.4, on ice 30 min, 3 uM probe, 10% native gel in 0.5x TBE at 4 C; details: protein: recombinant; tags: C-terminal His6; chain copies: 2; blunt
T2 sequence: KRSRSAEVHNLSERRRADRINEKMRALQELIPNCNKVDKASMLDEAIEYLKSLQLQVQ

B1: G-box (PER2), ITC (dsDNA)
DNA 1: AGGAACACGTGACCC
DNA 2: GGGTCACGTGTTCCT
- Kd (AtPIF3-bHLH H348A): 3.39 ± 0.275 µM
- Kd (AtPIF3-bHLH R356A): 106 ± 112 µM
